Laboratory results from patent US20240124595A1 (UNIVERSITY OF SASKATCHEWAN, published 2024).

T1: recombinant human IGF2R domains 11-13 Fc fusion protein (UniProt P11717 1511-1989)
T1 chain: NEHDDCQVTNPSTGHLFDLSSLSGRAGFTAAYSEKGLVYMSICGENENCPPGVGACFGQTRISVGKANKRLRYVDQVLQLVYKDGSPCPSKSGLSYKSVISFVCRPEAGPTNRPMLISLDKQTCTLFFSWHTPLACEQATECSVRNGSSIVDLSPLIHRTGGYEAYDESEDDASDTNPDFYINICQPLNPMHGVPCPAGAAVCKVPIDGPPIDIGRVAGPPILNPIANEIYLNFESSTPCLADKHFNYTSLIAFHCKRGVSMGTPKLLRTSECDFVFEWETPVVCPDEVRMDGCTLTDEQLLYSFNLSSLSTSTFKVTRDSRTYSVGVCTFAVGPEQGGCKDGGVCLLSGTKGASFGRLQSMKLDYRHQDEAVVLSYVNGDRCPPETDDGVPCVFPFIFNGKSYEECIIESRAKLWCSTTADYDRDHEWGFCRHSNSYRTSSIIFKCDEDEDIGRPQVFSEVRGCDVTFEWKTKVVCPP

T2: recombinant murine IGF2R domains 11-13 Fc fusion protein (UniProt Q07113 1504-1982)
T2 chain: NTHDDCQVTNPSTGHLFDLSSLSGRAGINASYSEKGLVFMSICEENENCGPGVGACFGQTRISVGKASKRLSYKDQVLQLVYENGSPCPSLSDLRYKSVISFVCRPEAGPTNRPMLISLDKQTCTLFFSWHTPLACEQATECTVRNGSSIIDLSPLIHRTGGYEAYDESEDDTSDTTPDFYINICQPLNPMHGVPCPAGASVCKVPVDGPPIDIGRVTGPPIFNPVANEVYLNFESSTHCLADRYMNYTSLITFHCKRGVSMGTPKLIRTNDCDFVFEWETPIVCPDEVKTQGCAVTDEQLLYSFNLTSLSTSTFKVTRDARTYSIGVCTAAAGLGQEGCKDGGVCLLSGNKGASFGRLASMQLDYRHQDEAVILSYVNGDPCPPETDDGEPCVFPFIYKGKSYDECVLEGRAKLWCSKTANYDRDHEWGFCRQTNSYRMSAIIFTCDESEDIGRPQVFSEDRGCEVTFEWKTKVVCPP

T3: recombinant canine IGF2R domains 11-13 Fc fusion protein
T3 chain: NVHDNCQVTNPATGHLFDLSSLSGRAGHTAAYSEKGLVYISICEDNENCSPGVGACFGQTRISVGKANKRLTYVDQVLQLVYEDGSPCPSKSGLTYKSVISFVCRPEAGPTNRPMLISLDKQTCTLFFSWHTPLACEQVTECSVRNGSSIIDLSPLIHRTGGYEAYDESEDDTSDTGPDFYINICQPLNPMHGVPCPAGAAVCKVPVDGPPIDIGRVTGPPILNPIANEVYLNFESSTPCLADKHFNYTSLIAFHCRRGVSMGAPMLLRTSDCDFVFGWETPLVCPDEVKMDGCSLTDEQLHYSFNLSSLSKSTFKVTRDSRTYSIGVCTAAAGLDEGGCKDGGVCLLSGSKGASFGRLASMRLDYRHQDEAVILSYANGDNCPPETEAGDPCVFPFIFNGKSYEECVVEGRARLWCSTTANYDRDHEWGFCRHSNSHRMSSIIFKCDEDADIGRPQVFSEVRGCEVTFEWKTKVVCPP

T4: recombinant canine IGF2R domains 11-13 Fc fusion protein (canine; human)
T4 construct: Soluble Fc fusion expressed in Expi293F; also called canine IGF2R fragment; not shown: human IgG1 Fc from a modified pFUSE-hIgG1-Fc2 vector (Invivogen)
T4 chain: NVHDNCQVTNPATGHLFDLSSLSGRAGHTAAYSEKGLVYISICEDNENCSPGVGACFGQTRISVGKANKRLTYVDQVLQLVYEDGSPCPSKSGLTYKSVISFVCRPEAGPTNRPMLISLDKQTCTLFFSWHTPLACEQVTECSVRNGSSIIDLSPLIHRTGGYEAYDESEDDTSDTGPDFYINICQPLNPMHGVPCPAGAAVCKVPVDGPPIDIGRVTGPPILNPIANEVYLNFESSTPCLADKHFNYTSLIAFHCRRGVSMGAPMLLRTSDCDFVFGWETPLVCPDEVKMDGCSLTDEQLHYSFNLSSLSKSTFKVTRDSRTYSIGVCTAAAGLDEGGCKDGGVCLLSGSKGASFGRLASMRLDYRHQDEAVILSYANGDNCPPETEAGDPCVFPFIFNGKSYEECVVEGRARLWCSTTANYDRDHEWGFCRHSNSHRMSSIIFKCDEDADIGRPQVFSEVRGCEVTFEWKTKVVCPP


Key:
[1] = biological target: T1, recombinant human IGF2R domains 11-13 …; test: ELISA; printed as "IC 50 or EC 50"
[2] = biological target: T2, recombinant murine IGF2R domains 11-13 …; test: ELISA; printed as "IC 50 or EC 50"
[3] = biological target: T3, recombinant canine IGF2R domains 11-13 …; test: ELISA; printed as "IC 50 or EC 50"
[4] = biological target: T5, human IGF2R on human osteosarcoma cells (human, UniProt P11717 41-2491); test: flow cytometry on human OS cell lines
T5 construct: whole, on cells; Endogenous receptor on tumour cell lines, not transfected cells; also called OS-33

[5] = biological target: T4, recombinant canine IGF2R domains 11-13 …; test: ELISA on coated recombinant IGF2R
[6] = biological target: T6, recombinant human IGF2R domains 11-13 Fc fusion protein (human, UniProt P11717 1511-1989); test: ELISA on coated recombinant IGF2R
T6 construct: Soluble Fc fusion expressed in Expi293F; also called human IGF2R fragment; not shown: human IgG1 Fc from a modified pFUSE-hIgG1-Fc2 vector (Invivogen)

[7] = biological target: T7, recombinant murine IGF2R domains 11-13 Fc fusion protein (murine; human, UniProt Q07113 1504-1982); test: ELISA on coated recombinant IGF2R
T7 construct: Soluble Fc fusion expressed in Expi293F; also called murine IGF2R fragment; not shown: human IgG1 Fc from a modified pFUSE-hIgG1-Fc2 vector (Invivogen)

[8] = biological target: T6, recombinant human IGF2R domains 11-13 …; test: phage ELISA on recombinant IGF2R Fc fusion
[9] = biological target: T4, recombinant canine IGF2R domains 11-13 …; test: competitive Fab-phage ELISA, same protein in solution as competitor
[10] = biological target: T7, recombinant murine IGF2R domains 11-13 …; test: as above
[11] = biological target: T6, recombinant human IGF2R domains 11-13 …; test: as above

T5 sequence (P11717 41-2491): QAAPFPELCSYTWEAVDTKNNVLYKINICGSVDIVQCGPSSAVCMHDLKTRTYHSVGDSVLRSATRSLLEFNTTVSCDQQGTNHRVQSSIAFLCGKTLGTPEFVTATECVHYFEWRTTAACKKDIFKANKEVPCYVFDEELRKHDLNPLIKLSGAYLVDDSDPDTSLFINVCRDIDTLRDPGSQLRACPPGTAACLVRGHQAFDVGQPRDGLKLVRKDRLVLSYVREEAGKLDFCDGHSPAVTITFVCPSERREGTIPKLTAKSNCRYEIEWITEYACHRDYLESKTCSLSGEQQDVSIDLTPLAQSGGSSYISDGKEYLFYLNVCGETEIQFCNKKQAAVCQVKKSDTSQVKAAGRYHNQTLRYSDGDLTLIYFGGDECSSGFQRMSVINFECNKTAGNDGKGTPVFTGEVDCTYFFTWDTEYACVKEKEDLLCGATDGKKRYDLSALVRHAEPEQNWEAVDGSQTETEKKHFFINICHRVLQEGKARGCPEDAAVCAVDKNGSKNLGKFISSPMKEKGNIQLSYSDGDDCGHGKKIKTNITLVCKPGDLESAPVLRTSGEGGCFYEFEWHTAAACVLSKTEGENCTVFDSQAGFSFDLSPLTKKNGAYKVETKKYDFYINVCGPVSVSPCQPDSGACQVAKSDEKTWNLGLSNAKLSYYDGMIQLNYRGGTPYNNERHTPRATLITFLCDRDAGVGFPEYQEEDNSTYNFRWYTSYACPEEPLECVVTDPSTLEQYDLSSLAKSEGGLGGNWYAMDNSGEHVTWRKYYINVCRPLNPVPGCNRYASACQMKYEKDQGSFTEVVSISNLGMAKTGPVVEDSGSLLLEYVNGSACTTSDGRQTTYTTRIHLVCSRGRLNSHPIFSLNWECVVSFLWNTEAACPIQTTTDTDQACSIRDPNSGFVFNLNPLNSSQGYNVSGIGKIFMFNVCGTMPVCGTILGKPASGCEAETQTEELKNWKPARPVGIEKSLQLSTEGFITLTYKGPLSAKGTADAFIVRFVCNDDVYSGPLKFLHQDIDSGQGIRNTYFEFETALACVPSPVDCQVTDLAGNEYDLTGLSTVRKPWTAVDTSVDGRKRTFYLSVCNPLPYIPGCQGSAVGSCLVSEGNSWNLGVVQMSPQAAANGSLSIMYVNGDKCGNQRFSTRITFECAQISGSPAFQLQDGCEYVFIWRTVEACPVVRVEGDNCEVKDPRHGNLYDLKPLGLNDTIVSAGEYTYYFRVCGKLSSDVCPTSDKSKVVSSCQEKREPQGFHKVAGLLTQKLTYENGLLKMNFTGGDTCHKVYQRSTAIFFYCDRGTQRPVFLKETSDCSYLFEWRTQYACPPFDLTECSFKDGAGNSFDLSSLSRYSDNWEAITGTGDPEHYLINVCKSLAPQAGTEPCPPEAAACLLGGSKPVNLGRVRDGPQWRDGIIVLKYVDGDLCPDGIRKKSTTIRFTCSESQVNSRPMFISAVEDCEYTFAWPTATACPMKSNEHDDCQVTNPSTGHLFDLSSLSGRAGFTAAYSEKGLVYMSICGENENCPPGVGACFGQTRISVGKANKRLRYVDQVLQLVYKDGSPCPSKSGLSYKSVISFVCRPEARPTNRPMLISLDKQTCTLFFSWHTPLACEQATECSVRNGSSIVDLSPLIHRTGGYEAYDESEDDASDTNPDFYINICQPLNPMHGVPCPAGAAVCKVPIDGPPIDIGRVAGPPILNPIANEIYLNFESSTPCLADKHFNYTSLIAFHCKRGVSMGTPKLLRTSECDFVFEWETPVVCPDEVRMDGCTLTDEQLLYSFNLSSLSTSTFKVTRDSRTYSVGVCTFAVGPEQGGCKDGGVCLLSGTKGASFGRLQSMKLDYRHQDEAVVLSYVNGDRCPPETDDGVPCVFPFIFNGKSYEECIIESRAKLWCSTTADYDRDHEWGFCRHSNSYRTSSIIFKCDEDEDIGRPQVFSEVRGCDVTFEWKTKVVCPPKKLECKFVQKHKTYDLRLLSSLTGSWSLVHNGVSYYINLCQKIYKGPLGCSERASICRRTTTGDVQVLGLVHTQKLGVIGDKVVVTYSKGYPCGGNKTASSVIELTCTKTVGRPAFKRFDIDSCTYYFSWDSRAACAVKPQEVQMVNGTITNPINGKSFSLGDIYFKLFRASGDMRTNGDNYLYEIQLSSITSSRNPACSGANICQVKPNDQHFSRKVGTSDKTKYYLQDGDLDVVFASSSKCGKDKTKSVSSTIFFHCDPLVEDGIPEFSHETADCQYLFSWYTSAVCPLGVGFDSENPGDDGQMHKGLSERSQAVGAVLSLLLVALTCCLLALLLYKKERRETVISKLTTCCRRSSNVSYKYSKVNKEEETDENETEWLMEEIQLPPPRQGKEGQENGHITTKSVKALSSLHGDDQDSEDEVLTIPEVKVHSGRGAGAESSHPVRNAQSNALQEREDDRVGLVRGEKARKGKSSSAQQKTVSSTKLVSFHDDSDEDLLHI

Row | Binder | EC50 [1] | EC50 [2] | EC50 [3] | binding result [4] | binding result [5] | binding result [6] | binding result [7] | binding result [8] | binding result [9] | binding result [10] | binding result [11]
1 | IF3 (antibody, human IgG1, kappa, V domains shown, Full-length human IgG1 kappa expressed in Expi293F cells; also called 1F3; IGF2R-IgG#3) VH: EVQLVESGGGLVQPGGSLRLSCAASGFNIKDTYIHWVRQAPGKGLEWVAFIDPIFGDTRYADSVKGRFTISADTSKNTAYLQMNSLRAEDTAVYYCSRWGGDGFYAMDYWGQGTLVTVSS VL: DIQMTQSPSSLSASVGDRVTITCRASQDVNTAVAWYQQKPGKAPKLLIYSASFLYSGVPSRFSGSRSGTDFTLTISSLQPEDFATYYCQQAYFFHHFPPTFGQGTKVEIKR | 1.14 nM | 3.06 nM | 3.22 nM | binds | binds | binds | binds |  |  |  | 
2 | IGF2R-Fab-1 (Fab, V domains shown, From the naive library (VH3-30 / VK1); also called Fab-phage) VH: EVQLVESGGGVVQPGGSLRLSCAASGFTFSSYAMHWVRQAPGKGLEWVAVISYDGSNKYYADSVKGRFTISRDNSKNTLYLQMNSLRAEDTAVYYCARDDRFFGGMDVWGQGTTVTVSS VL: AIRMTQSPSSLSASVGDRVTITCRASQDISSWLAWYQQKPDKAPKSLIYAASSLEDGVPSRFSGSGSGTDFTLTISSLQAEDFATYYCQQYNTYPWTFGQGTKVEIK |  |  |  |  |  |  |  | binds | binds | binds | 
3 | IGF2R-Fab-2 (Fab, V domains shown, From the synthetic 4D5-8 (trastuzumab framework) library; also called Fab-phage) VH: EVQLVESGGGLVQPGGSLRLSCAASGFNIKYTYIHWVRQAPGKGLEWVALIDPHYGFTRYADSVKGRFTISADTSKNTAYLQMNSLRAEDTAVYYCSRWYYDHAMDYWGQGTLVTVSS VL: DIQMTQSPSSLSASVGDRVTITCRASQLVDTAVAWYQQKPGKAPKLLIYFASYLYSGVPSRFSGSRSGTDFTLTISSLQPEDFATYYCQQVVYYPPTFGQGTKVEIK |  |  |  |  |  |  |  |  | binds | binds | binds
4 | IGF2R-Fab-3 (Fab, V domains shown, From the synthetic 4D5-8 (trastuzumab framework) library; also called Fab-phage) VH: EVQLVESGGGLVQPGGSLRLSCAASGFNIKDTYIHWVRQAPGKGLEWVAFIDPIFGDTRYADSVKGRFTISADTSKNTAYLQMNSLRAEDTAVYYCSRWGGDGFYAMDYWGQGTLVTVSS VL: DIQMTQSPSSLSASVGDRVTITCRASQDVNTAVAWYQQKPGKAPKLLIYSASFLYSGVPSRFSGSRSGTDFTLTISSLQPEDFATYYCQQAYFFHHFPPTFGQGTKVEIK |  |  |  |  |  |  |  |  | binds | binds | binds
5 | IF1 (antibody, human IgG1, kappa, V domains shown, Full-length human IgG1 kappa expressed in Expi293F cells; also called IGF2R-IgG#1; full-size human IgG from Fab1) VH: EVQLVESGGGVVQPGGSLRLSCAASGFTFSSYAMHWVRQAPGKGLEWVAVISYDGSNKYYADSVKGRFTISRDNSKNTLYLQMNSLRAEDTAVYYCARDDRFFGGMDVWGQGTTVTVSS VL: AIRMTQSPSSLSASVGDRVTITCRASQDISSWLAWYQQKPDKAPKSLIYAASSLEDGVPSRFSGSGSGTDFTLTISSLQAEDFATYYCQQYNTYPWTFGQGTKVEIKR |  |  |  | binds | binds | binds | binds |  |  |  | 
